Experimental data from the DeepSol protein solubility set.

Test: soluble on expression in E. coli; label from the status in PepcDB or PDB records

Sequence	soluble on expression in E. coli
MSMDIVMKSDEQPFISAPVCFKTFAFFAKASAEECKLLASGSNARESFQQATGLSEKITEDIYRQIDVSHISSMVFNREMDGGIERNRLGSQAILLDENSRRRNPQFKSIALRSLRYDHIDHRALARKSPHLMPPTYIKEEIMDDELDEVKEEEVSVGEAALPTAKVELNMDHPEKDLIISTSVYLGYTRTLQYHEIRLGRLMKVTDRLELTGDHTLRDLKNAFSCPIDFSFSDDFSEKKPSFKDMAKNKWPSSMFFIHDTFYIDSNTGDQFVDPSITIRTWAKKFDYIGPMHVKQMSETRIGDLICRLGQPYVYIHQGVCEHLIVFNDLCLRDESHTNVEFPRRLVERNFRRIACDTCKEASAHWMIVDHDNLLPNSPGYLCSSCYKEFCFDVNGNKVCQFKAVPYCDRKDIGDGRQFFTELDL	not soluble
MGQRVDKEVTPRFVELGQVSAIRTEPEIAYRSNQGVTRQRQQTKVFKLVSTYDKVAVKNAIRAAYRQVFERDLEPYIINSEFTALESKLSNNEINVKEFIEGLGTSELYMKEFYAPYPNTKVIEMGTKHFLGRAPLNQKEIQQYNQILASQGLKAFIGAMVNGMEYLQTFGEDTVPYRRFPTLPAANFPNTERLYNKLTKQDKELEHHHHHH	soluble
MCFTKKSTKTPPEPISKDSADKKKKTTIKKGKKFPMMNMIVKNKKNEVQVEKKPEEVPEQNKSVKDQTKKEEVKVVEEDKVEKKVEQKKPIINRPNCVAINPRSATSGKKNKYKFKYGQIDQQELSINNDKTEYLENAQLTKLMSHADVRALMGGQFAQGENADTNNCQDTVEEVDSEMLEIAFSPLLAVIPREDERVYGAFVHPTEQKKNAEA	soluble
FHLGKCPNPPVQENFDVNKYPGRWYEIEKIPTTFENGRCIQANYSLMENGKIKVLNQELRADGTVNQIEGEATPVNLTEPAKLEVKFSWFMPSAPYHILATDYENYALVYSCTSISQSFHVDFAWILARNVALPPETVDSLKNILTSNNIDVKKMTVTDQVNCPKLSAHHHHHH	soluble
MGSDKIHHHHHHMSELLGLIVDARPLQAHFRIPHTSLLLDTYPFPPKTTAVGMLAGCMGLGEEGFKKLLEKIKYGVIIEDPGEKIEEVSVIYKNPYSPSYPITRVSLYKPRFRMFFAGEERVIEEAYEGLLDPKFVPYMGDSESLFYPGKKRYVEVVDVQEGKEDILRSVIPEVKFKEFVPLRRKVLVPKVYEAPVKFTYKGKSRRAVYGRFIAFSGGYVKLEKKIDVLLFDGEPIATF	not soluble
METTIFQFQKTFFTKPPKERVFVLHGEEQYLIRTFLSKLKEKYGENYTVLWGDEISEEEFYTALSETSIFGGSKEKAVVIYNFGDFLKKLGRKKKEKERLIKVLRNVKSNYVFIVYDAKLQKQELSSEPLKSVASFGGIVVANRLSKERIKQLVLKKFKEKGINVENDALEYLLQLTGYNLMELKLEVEKLIDYASEKKILTLDEVKRVAFSVSENVNVFEFVDLLLLKDYEKALKVLDSLISFGIHPLQIMKILSSYALKLYTLKRLEEKGEDLNKAMESVGIKNNFLKMKFKSYLKANSKEDLKNLILSLQRIDAFSKLYFQDTVQLLRDFLTSRLEREVVKNTSHGG	soluble
GPLGSGTWDCDTCLVQNKPEAVKCVACETPKPG	soluble
MKQPFERILREICFMVKVEGRKVLRDFGITPAQFDILQKIYFEGPKRPGELSVLLGVAKSTVTGLVKRLEADGYLTRTPDPADRRAYFLVITRKGEEVIEKVIERRENFIEKITSDLGKEKSSKILDYLKELKGVMERNFSKQ	soluble
MAKKVAVLAVNPVNGCGLFQYLEAFFENGISYKVFAVSDTKEIKTNSGMVLIVDDVIANLKGHEDEFDALVFSCGDAVPVFQQYANQPYNVDLMEVIKTFGEKGKMMIGHCAGAMMFDFTGITKGKKVAVHPLAKPAIQNGIATDEKSEIDGNFFTAQDENTIWTMLPKVIEALKLEHHHHHH	soluble
MAGPQQQPPYLHLAELTASQFLEIWKHFDADGNGYIEGKELENFFQELEKARKGSGMMSKSDNFGEKMKEFMQKYDKNSDGKIEMAELAQILPTEENFLLCFRQHVGSSTEFMEAWRKYDTDRSGYIEANELKGFLSDLLKKANRPYDEPKLQEYTQTILRMFDLNGDGKLGLSEMSRLLPVQENFLLKFQGMKLTSEEFNAIFTFYDKDRSGYIDEHELDALLKDLYEKNKKEMNIQQLTNYRKSVMSLAEAGKLYRKDLEIVLCSEPPM	not soluble
MALREFSSVKVGDQLPEKTYPLTRQDLVNYAGVSGDLNPIHWDDEIAKVVGLDTAIAHGMLTMGIGGGYVTSWVGDPGAVTEYNVRFTAVVPVPNDGKGAELVFNGRVKSVDPESKSVTIALTATTGGKKIFGRAIASAKLA	soluble
MSLDRTLRGRVEGKVVLITGATSGIGKATARKLAEAGAKVLTIARDEHKIAETQAEFAELGLTLQVYQGDLADLSQGEAITRQIVAEHGGVDILINNAGRSIRRAIEDSFDRFHDLERTMQLNYFGTLKVIMGLLPTMIEKKKGHIINISSIGVLTNAPRFSAYVASKSALDAWVRTAASEFADKGVNFSIINMPLVKTPMVAPTKVYEQVPMMTPEEAADLVCDTIINKHVRLATRLGVFGQVIHALAPRVAQVIMNTSEGHHHHHH	not soluble
SLQVNTPQTEETANQAKRHVADYTMDGISATALDERGVTKYRFTGVHMNHYEDDLTYDVTFPALRIYAPDRPQVTARADLGKMNGEGSIIDLYDNAKVVRAQGPDLRQDPLMTADSTYFQVLLNDDVVRTDKPVELHRGPSVMNANGLVFNNVTRQVQLLGNVRGRIEGLGAPKQ	soluble
MAHHHHHHMQRWPCRRCCRAATLGSRTFVLVRRRAPSAFITTASHASSGAAPPWTVAHQRVCIIIPPVEKLTTPPSPRLSRRYVDSQTLDDSRTQQADAQEPDHFRFAIKNSERGLLDHGVTPDAIAFIAEAEEEYRASSSYLHDRPGGAGMPESETHVDEVTGQQTTTTRIAAPFGETYVPSNRERFAERQRVGELSRQLNLVDKPFMLDEHAQLNLRKERQLCELLASPMPQLAKADEVAHFLLNGVYAQNLALQPRSCESVMLLYSHASFLRRLEGPTKQLTGRAHDAARLAAPSSGADTRAVPRTPQDVPFLDDMRRLYTHQKRCFISPTPLSLEHFMTTLSVITAPSTTAFHLANRLLLDADKFVLLPTRTTYTAYFTVCHVNNAMQFAMARYTDAVQALQLPVDAPMLTALLKGLNESGYVEEAVSLLSRIGHVAVSTPLLNASLETLLLSEQALACFSLYDAMRGSSVKPNAETYTLLLLACEKSQQWRRVTAILAEMQRRRVRGNEQTLNLLLKGLLQERLHSYAAQLYHTMLAKKVPLWPALELGVRPLLR	not soluble
MNYRNKAFLKYEEDYFIERIIKALKDYEEIIIISNNPEEYKEFGLKVFKDIYPSQGPLSGIHSALNHIKNDYCLVVACDMPFINKDVVNYLGNIKEDYEILIPKFQERLQPLCAIYKKSCKDIMEKELINNSNKLIKTCFKFSMKVVEEFPFIEKVHKKEIKNFYNINTVDEYEDLIKKKEILEHHHHHH	not soluble
GEITSAYFVCREATLQKLAAMQSIDSEQKLSALFEGSSQIISLFDRDSRFVWYNKAAYDKSIFLFGKFLCVGERFDSYLKEQYREGFNANFERVLKGEIVSYTREYTYQDKPFFLEIMLQPVYQKDELVGVSLIGNN	not soluble
MSSQPNQSLIDGIRCLQYLVSSDRAIGCRELARLMDINTTRVNRLLMTMASIGLTMQDEHRRYLPGPGIHALAAQAIRGSALFSHALPILERHAPKDIVVALGVLWEDQIIYIYHSTPGSQGSQALAGFRMYPAWQSVPGVALLAAESDEALMQRFTPEQWRNLAPHVAQQRQRGYVLWHHADGEVSMAQPLGKHAAALAFAGMWRIDEAEAAARLQALKALNQLIAQ	not soluble
MVAENQPGHIDQIKQTNAGAVYRLIDQLGPVSRIDLSRLAQLAPASITKIVREMLEAHLVQELEIKEAGNRGRPAVGLVVETEAWHYLSLRISRGEIFLALRDLSSKLVVEESQELALKDDSPLLDRIISHIDQFFIRHQKKLERLTSIAITLPGIIDTENGIVHRMPFYEDVKEMPLGEALEQHTGVPVYIQHDISAWTMAEALFGASRGARDVIQVVIDHNVGAGVITDGHLLHAGSSSLVEIGHTQVDPYGKRCYCGNHGCLETIASVDSILELAQLRLNQSMSSMLHGQPLTVDSLCQAALRGDLLAKDIITGVGAHVGRILAIMVNLFNPQKILIGSPLSKAADILFPVISDSIRQQALPAYSQHISVESTQFSNQGTMAGAALVKDAMYNGSLLIRLLQG	soluble
MSLKDITLQVALPKFGYKENVKSFVLEVIAKDSSFWNFFSGNEARKQIAVLVDNTAPKINIISNSYQIEQGGAGAVVFKADDANLDKVYIETNKGKIFKATPYVKEGYYAALIAWDARDEEFRAFVIATDKAGNISKERIRYYFVNRKYRVSNINLTDKFLDGKIENLANQYAPKDNNLNRYEKFKFVNETLRNSNEKLIHEITSKVPEEKIDNFDLNLFLPLKNGMKVADFADHRYYSYNGQFVSDSYHMGLDLASVAQAPIISNNAGKVVFAAENGIYGLNLIVYHGFGVYSLYGHCSSKNVDLDEMINKQSIIGKTGTSGLALGDHLHFGVLVQGVETRPEQWQDKKWIENNIYNVLNDGKKIILGKNEGHHHHHH	not soluble
MLSEWQNHKAQLRNYVYKRVDDASAVDDILQDVYIKASSNLHQLKSKGSLKGWLYKIAYNTIMDFYRDKLPYDELPEDLVAEDEDAVEESRKEIAECMRPLIDELPDKYSVPLRLAELDGIPQQEIADKLGLSLSGAKSRIQRGRVKFRENLMTCCDFEINDGGMVTGYTPKKTNCSSPKR	not soluble
MLSNMLDVNLEKMERFAAKVWRKYGKEDPLAQLSFNEYDYLKVIQSAPQAIRLTDLALALEVSKPSASNMLKRLERRGLVKRVQCQSDARSQLFELTEQAELHLASEAKVYQILAEQVAQNLSSEEAMMLDLLLGKALR	not soluble
MRVSLFLQKQIIECSKAFQPHSTRLQWPKSQDKVFVAMSGGVDSSFSAYLLKSQGYNVEGVFMRNWLDEDSAPSGCPAERDWATVQKVCKKLNISCRRFNFEKEYWNLVFEPSLDLYENGLTPNPDVSCNRQVKFGALFDALKKHCENNVKGDWWLASGHYAKSVVNIETNESHMCIPTDKRKDQTLFLCTIRKEALEKTIFPLHNWTKENVKKQASSAGFKEIAEKQESQGLCFVSPNVGRKFRKFLQRYLNFSDRPIKVIAGKNVVGEFSGNHGIWSLTVGERCGLSLPQAQSEYFGRWYVWKKDIKNNALYICRGTNNELLMSKCIYLKDWKWCGTKLQNLEKSALSCFVRVRHQQPLQPAKVTWRNPESVKIHFQDKQRAVTPGQVIAVYVNDVCLGGGMVDTVEPEKDFD	soluble
MGSDKIHHHHHHMAYIKRTIETTIENAAKMFSTVLITGARQVGKTTVLKHITEDISYLTLDDPILLLNAFEEAGSFFKSTPPPVIIDEIQYAPNLFPYIKMIADENGKRGQFYLTGSQQFKMMKNVSESLAGRIGIINLLGLSLREIKGDADFNKAFIPTESYLETRRLSAKELNYKEIWKIIYKGSMPAMYADELDWQLFYGSYTKTYLERDVRELTQVGDELKFIKFMTAMASRTSQMLNLTSIANEVGISVPTADRWLSILVSSNIVYLLKPYYNNIMKRAVKTPKLYFLDTGLAAYLTKWNSPDVIEAGAMSGAFFETFVLAEILKGYYNAGILEPALYYYRDKDAKEIDIILEENGTLYPIEIKKTANPSKEHIANFSVLDRLKDMKIGTGCVICMYDKVIHINDNNVSIPVTWL	not soluble
